The values below come from patent publication US20260234226A1 (IMAGINAB, published 2026).

One may read the EC50 as the concentration needed to bring the measured effect to its halfway point. The term Kd denotes a measure of binding affinity in units of concentration. High values mean weaker binding, low ones tighter binding. Broadly, the koff is the rate constant with which the complex falls apart. Usually kon stands for the rate constant with which the complex forms. Low values mean slower complex formation, high ones faster complex formation.

Experiment [1] has as its target T1, purified human/cynomolgus/dog/mouse/rat or minipig DLL3 antigen (ELISA coat) (human/cynomolgus/dog/mouse/rat or …).
T1 construct: May be the same protein as the his-tagged antigen used for BLI
Put plainly: ELISA, plate coated with purified DLL3 antigen, HRP secondary (FIG. 8). The procedure:
(§1) Binding affinity of the novel antigen binding constructs to a purified human/cynomolgus/dog/mouse/rat or minipig DLL3 antigen was assessed using ELISA. For this assay, a 96 well ELISA plate was coated with the DLL3 antigen diluted to a concentration of […] in coating buffer (0.05M sodium carbonate-bicarbonate buffer, pH 9.6). 100 μl of this coating solution was added to each well in the plate and incubate at 4° C. overnight. The plate was washed 3 times with 300 μl per well of washing buffer (PBS with 0.05% Tween-20). After the last wash, the plate was blocked by adding to each well 200 μl of blocking buffer (PBS with 1% BSA) warmed to room temperature. The plate was then incubated at room temperature for 1 hour under gentle agitation. After blocking, the plate was washed 3 times with 300 μl per well of washing buffer. Dilution samples for each minibody were created by making 2.5× dilutions from a starting sample at 100 ng/mL, or 250 ng/mL, or 1000 ng/mL or 3000 ng/mL in 100 μL sample buffer (PBS with 1% BSA). The dilution samples were transferred to the assay plate and incubated at room temperature for 1 hour under gentle agitation. The plate was then washed 3 times with 300 μl per well of washing buffer.
Detection was performed by adding 100 μl of HRP labeled detection secondary antibody at an appropriate dilution and incubating the plate at room temperature for 1 hour under gentle agitation. The plate was then washed 3 times with 300 μl per well of washing buffer. For color development, 100 μl of TMB substrate regent, pre-warmed to room temperature, was added to the plate and incubated in the dark at room temperature for 15 min. The reaction was then stopped by adding 100 μl of 650 nm stop solution to the plate and mixed for 1 min at room temperature under gentle agitation. The plate is recorded by reading OD at 650 nm in a plate reader within 20 min after terminating the reaction.
(In general: In an ELISA, binding on a coated surface is turned into a signal by an enzyme label.)

The target of experiment [2] is T1, purified human/cynomolgus/dog/mouse/rat …. Put plainly: ELISA on plate-coated recombinant DLL3 antigen, A650 readout, left panel 'DLL3 ELISA'; the table gives no unit, nM is from the axis 'Antibody Concentration (nM)'. How it is done:
as §1, with “The dilution samples were transferred to the assay plate and incubated at room temperature for 1 hour under gentle agitation. The plate was then washed 3 times with 300 μl per well of washing buffer.” left out
Detection was performed by adding 100 μl of HRP labeled detection secondary antibody at an appropriate dilution and incubating the plate at room temperature for 1 hour under gentle agitation. […] The plate is recorded by reading OD at 650 nm in a plate reader within 20 min after terminating the reaction.

The target of experiment [3] is T2, his-tagged-DLL3 antigen (purified human/cynomolgus/dog/mouse/rat or minipig DLL3 antigen) (human/cynomolgus/dog/mouse/rat or …).
T2 construct: Antigen loaded on nickel-NTA tips for biolayer interferometry; also called Delta-like protein 3
Put plainly: biolayer interferometry (Octet BLItz), his-tagged DLL3 on nickel-NTA tip, minibody in solution. How it is done: (§2) As disclosed herein, the binding kinetics of the novel antigen binding constructs to a purified human/cynomolgus/dog/mouse/rat or minipig DLL3 antigen was assessed using biolayer interferometry (TABLE 9) (FIG. 9). The his-tagged-DLL3 antigen was diluted in phosphate buffer saline (PBS) at 10 μg/mL and loaded on a nickel-NTA tip until saturation. The on-rate (Kon) and off-rate (Koff), and the dissociation constant KD, where recorded on Octet BLItz instrument. Dilution samples of the antigen binding construct were prepared in PBS at concentrations between 100 nM and 0.1 nM, by 2.5× dilutions and binding curves recorded at each concentration. Off-rate curves were recorded by immersion of the tip in PBS.
A general note: BLI is a label-free optical method that tracks binding on a fibre tip over time.

Experiment [4] deals with T2, his-tagged-DLL3 antigen (purified …). Put plainly: biolayer interferometry, his-tagged DLL3 on a Ni-NTA tip, minibody at 100 nM; the table gives no unit, nm is from the axis 'Binding (nm)'. How it is done: as §2

T2 sequence (Q9NYJ7 whole entry): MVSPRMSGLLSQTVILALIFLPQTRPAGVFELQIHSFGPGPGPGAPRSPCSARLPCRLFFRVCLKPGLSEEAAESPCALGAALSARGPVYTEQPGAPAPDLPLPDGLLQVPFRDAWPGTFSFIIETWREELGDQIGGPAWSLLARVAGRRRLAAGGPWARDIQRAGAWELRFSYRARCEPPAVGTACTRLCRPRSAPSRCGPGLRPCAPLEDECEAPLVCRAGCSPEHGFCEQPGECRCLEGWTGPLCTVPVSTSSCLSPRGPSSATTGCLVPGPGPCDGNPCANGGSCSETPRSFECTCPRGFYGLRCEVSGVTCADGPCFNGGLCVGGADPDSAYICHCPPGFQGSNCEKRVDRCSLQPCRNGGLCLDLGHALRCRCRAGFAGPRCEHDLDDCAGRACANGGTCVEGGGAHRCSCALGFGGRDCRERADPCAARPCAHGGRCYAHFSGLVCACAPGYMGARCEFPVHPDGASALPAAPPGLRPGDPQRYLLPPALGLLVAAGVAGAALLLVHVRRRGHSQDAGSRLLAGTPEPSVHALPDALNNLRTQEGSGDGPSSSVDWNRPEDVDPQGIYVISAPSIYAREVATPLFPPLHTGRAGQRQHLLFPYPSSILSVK
T1 sequence (Q9NYJ7 whole entry): as above

B1: IAB57M1-1 (other)
chain: EIVMTQSPATLSVSPGERATLSCKASQSVSNDVVWYQQKPGQAPRLLIYYASNRYTGIPARFSGSGSGTEFTLTISSLQSEDFAVYYCQQDYTSPWTFGQGTKLEIKGSTSGGGSGGGSGGGGSSQVQLVQSGAEVKKPGASVKVSCKASGYTFTNYGMNWVRQAPGQGLEWMGWINTYTGEPTYADDFKGRVTMTTDTSTSTAYMELRSLRSDDTAVYYCARIGDSSPSDYWGQGTLVTVSSEPKSSDKTHTCPPCPPCGGGSSGGGSGGQPREPQVYTLPPSREEMTKNQVSLTCLVKGFYPSDIAVEWESNGQPENNYKTTPPVLDSDGSFFLYSKLTVDKSRWQQGNVFSCSVMHEALHNHYTQKSLSLSPG
notes: Parental minibody; also called parental minibody IAB57M1-1
B1 showed an EC50 in experiment [1] of 0.0946 nM. The 50% effective concentration (EC50) in experiment [2] stood at 0.115 nM. In experiment [3], this molecule came in with a Kd of 3.33 nM, a koff of 0.00279 s⁻¹ and an association rate constant (kon) of 838000 M⁻¹ s⁻¹.

B2: IAB57M1-5 (other)
chain: EIVMTQSPATLSVSPGERATLSCKASQSVSNDVVWYQQKPGQAPRLLIYYASNRNTGIPARFSGSGSGTEFTLTISSLQSEDFAVYYCQQDYTSPWTFGQGTKLEIKGSTSGGGSGGGSGGGGSSQVQLVQSGAEVKKPGASVKVSCKASGYTFTNYGMNWVRQAPGQGLEWMGWINTYTGEPTYADDFKGRVTMTTDTSTSTAYMELRSLRSDDTAVYYCARIGDSSPSDYWGQGTLVTVSSEPKSSDKTHTCPPCPPCGGGSSGGGSGGQPREPQVYTLPPSREEMTKNQVSLTCLVKGFYPSDIAVEWESNGQPENNYKTTPPVLDSDGSFFLYSKLTVDKSRWQQGNVFSCSVMHEALHNHYTQKSLSLSPG
notes: Signal peptide left out
Molecule B2 showed an EC50 in experiment [1] of 0.125 nM.

B3: IAB57M1-7 (other)
chain: EIVMTQSPATLSVSPGERATLSCKASQSVSNDVVWYQQKPGQAPRLLIYDASNRNTGIPARFSGSGSGTEFTLTISSLQSEDFAVYYCQQDYTSPWTFGQGTKLEIKGSTSGGGSGGGSGGGGSSQVQLVQSGAEVKKPGASVKVSCKASGYTFTNYGMNWVRQAPGQGLEWMGWINTYTGEPTYADDFKGRVTMTTDTSTSTAYMELRSLRSDDTAVYYCARIGDSSPSDYWGQGTLVTVSSEPKSSDKTHTCPPCPPCGGGSSGGGSGGQPREPQVYTLPPSREEMTKNQVSLTCLVKGFYPSDIAVEWESNGQPENNYKTTPPVLDSDGSFFLYSKLTVDKSRWQQGNVFSCSVMHEALHNHYTQKSLSLSPG
notes: Signal peptide left out
As for B3, the midpoint of the response in experiment [1], the EC50, lay at 0.111 nM.

B4: IAB57M2-2 (other)
chain: QVQLVQSGAEVKKPGASVKVSCKASGYTFTNYGMNWVRQAPGQGLEWMGWINTYTGEPTYADDFKGRVTMTTDTSTSTAYMELRSLRSDDTAVYYCARIGDSSPSDYWGQGTLVTVSSGSTSGGGSGGGSGGGGSSEIVMTQSPATLSVSPGERATLSCKASQSVSNDVVWYQQKPGQAPRLLIYYASNRYTGIPARFSGSGSGTEFTLTISSLQSEDFAVYYCQQDYTSPWTFGQGTKLEIKEPKSSDKTHTCPPCPPCGGGSSGGGSGGQPREPQVYTLPPSREEMTKNQVSLTCLVKGFYPSDIAVEWESNGQPENNYKTTPPVLDSDGSFFLYSKLTVDKSRWQQGNVFSCSVMHEALHNHYTQKSLSLSPG
notes: Parental minibody; Signal peptide left out; also called parental minibody IAB57M2-2
In experiment [1], B4 registered a 50% effective concentration (EC50) of 0.12 nM. Besides, the 50% effective concentration (EC50) in experiment [2] came out at 0.132 nM. In experiment [4], this molecule came in with a R equilibrium of 0.876 nm. In experiment [3], this molecule yielded an equilibrium dissociation constant (Kd) of 3.07 nM, a koff of 0.00214 s⁻¹ and a kon of 698000 M⁻¹ s⁻¹.

B5: IAB57M2-4 (other)
chain: QVQLVQSGAEVKKPGASVKVSCKASGYTFTNYGMNWVRQAPGQGLEWMGWINTYTGEPTYADDFKGRVTMTTDTSTSTAYMELRSLRSDDTAVYYCARIGDSSPSDYWGQGTLVTVSSGSTSGGGSGGGSGGGGSSEIVMTQSPATLSVSPGERATLSCKASQSVSNDVVWYQQKPGQAPRLLIYDASNRYTGIPARFSGSGSGTEFTLTISSLQSEDFAVYYCQQDYTSPWTFGQGTKLEIKEPKSSDKTHTCPPCPPCGGGSSGGGSGGQPREPQVYTLPPSREEMTKNQVSLTCLVKGFYPSDIAVEWESNGQPENNYKTTPPVLDSDGSFFLYSKLTVDKSRWQQGNVFSCSVMHEALHNHYTQKSLSLSPG
notes: Signal peptide left out
In experiment [1], B5 showed a concentration giving a half-maximal response (EC50) of 0.118 nM. In addition, the R equilibrium in experiment [4] came out at 0.911 nm. In experiment [3], this molecule returned a Kd of 4.84 nM, a dissociation rate constant (koff) of 0.00281 s⁻¹ and an association rate constant (kon) of 581000 M⁻¹ s⁻¹.

B6: IAB57M2-8 (other)
chain: QVQLVQSGAEVKKPGASVKVSCKASGYTFTNYGMNWVRQAPGQGLEWMGWINTYTGEPTYADDFKGRVTMTTDTSTSTAYMELRSLRSDDTAVYYCARIGDSSPSDYWGQGTLVTVSSGSTSGGGSGGGSGGGGSSEIVMTQSPATLSVSPGERATLSCKASQSVSNDVVWYQQKPGQAPRLLIYDASNRNTGIPARFSGSGSGTEFTLTISSLQSEDFAVYYCQQDYTSPWTFGQGTKLEIKEPKSSDKTHTCPPCPPCGGGSSGGGSGGQPREPQVYTLPPSREEMTKNQVSLTCLVKGFYPSDIAVEWESNGQPENNYKTTPPVLDSDGSFFLYSKLTVDKSRWQQGNVFSCSVMHEALHNHYTQKSLSLSPG
notes: Signal peptide left out
Molecule B6 yielded an EC50 in experiment [1] of 0.123 nM.
